According to paper PMC10825016, “New insights into the structure and function of the complex between the Escherichia coli Hsp70, DnaK, and its nucleotide-exchange factor, GrpE” (The Journal of Biological Chemistry, 2023):
Blank lines part the entries; values can stand above or below the binder they belong to.

Assays:
[1] = target: T1, DnaK nucleotide-binding domain NBD^1–392 T199A (E. coli, UniProt P0A6Y8 1-392, T199A); test: NMR titration; HMQC spectra of 2H, 13C-methyl ILV labelled protein, 25 °C; nucleotide free; 40 μM NBD^1–392 T199A plus 40 μM GrpE or truncated variants, or 60 μM DnaK plus 80 μM GrpE or truncated variants; conditions: both partners purified
T1 construct: Nucleotide free unless specified; Used unlabelled in SPR and 2H-15N labelled or 2H, ILV 13C-methyl labelled in NMR; also called DnaK NBD; wildtype NBD

[2] = target: T2, Wildtype E. coli full-length DnaK (E. coli, UniProt P0A6Y8 1-638); test: as above; conditions: both partners purified
T2 construct: Escherichia coli Hsp70 DnaK, wildtype, full length; 2H, ILV 13C-methyl labelled and nucleotide free in the NMR experiments

[3] = target: T1, DnaK nucleotide-binding domain …; test: SPR; Biacore T-200, NTA sensor chip activated with Ni2+; N-terminal His-tagged GrpE immobilised; nucleotide-free NBD^1–392 T199A or its variants perfused at diverse concentrations; control without GrpE subtracted; equilibrium and kinetic fits; conditions: both partners purified
DnaK NBD^1–392 Q260R = DnaK NBD^1–392 Q260R (E. coli, UniProt P0A6Y8 1-392, T199A | Q260R); test: as above; conditions: both partners purified
DnaK NBD^1–392 Y285R = DnaK NBD^1–392 Y285R (E. coli, UniProt P0A6Y8 1-392, T199A | Y285R); test: as above; conditions: both partners purified
[4] = target: DnaK NBD^1–392 Δ285 to 295 (E. coli, UniProt P0A6Y8 1-392, T199A | Δ285 to 295); test: as above; conditions: both partners purified
[5] = target: T2, Wildtype E. coli full-length DnaK; test: not stated; data not shown; nucleotide-free DnaK/GrpE

binding result [1]: binds | binding result [2]: binds
B1: GrpE^69–197 (domain or fragment, E. coli, UniProt P09372 69-197, looked up)
chain: MENLRRRTELDIEKAHKFALEKFINELLPVIDSLDRALEVADKANPDMSAMVEGIELTLKSMLDVVRKFGVEVIAETNVPLDPNVHQAIAMVESDDVAPGNVLGIMQKGYTLNGRTIRAAMVTVAKAKA
notes: lacks the N-terminal disordered tail and a portion of the coiled-coil domain; 2H-labelled for the 1H-15N HSQC experiments; also called truncated GrpE variant; source: E. coli BL21(DE3), purified (Ni-NTA, TEV cleavage, second Ni-NTA)

Kd [3]: 3.8 ± 0.6 nM | koff [3]: 0.021 s⁻¹ | kon [3]: 5.9e+06 M⁻¹ s⁻¹ | Kd (DnaK NBD^1–392 Q260R): 4.1 ± 0.3 nM | koff (DnaK NBD^1–392 Q260R): 0.0231 s⁻¹ | kon (DnaK NBD^1–392 Q260R): 5.6e+06 M⁻¹ s⁻¹ | Kd (DnaK NBD^1–392 Y285R): 120 ± 10 nM | koff (DnaK NBD^1–392 Y285R): 0.0178 s⁻¹ | kon (DnaK NBD^1–392 Y285R): 24000 M⁻¹ s⁻¹ | Kd [4]: 440 ± 60 nM | koff [4]: 0.0158 s⁻¹ | kon [4]: 39000 M⁻¹ s⁻¹
B2: N-terminal His-tagged GrpE (natural protein, E. coli, UniProt P09372 1-197, looked up)
chain: MSSKEQKTPEGQAPEEIIMDQHEEIEAVEPEASAEQVDPRDEKVANLEAQLAEAQTRERDGILRVKAEMENLRRRTELDIEKAHKFALEKFINELLPVIDSLDRALEVADKANPDMSAMVEGIELTLKSMLDVVRKFGVEVIAETNVPLDPNVHQAIAMVESDDVAPGNVLGIMQKGYTLNGRTIRAAMVTVAKAKA
notes: Held on the Ni-NTA sensor chip by its His tag in SPR; source: E. coli BL21(DE3), purified (Ni-NTA); not shown: His tag, N-terminal, kept

Kd [5]: 3 nM
B3: GrpE, full-length wildtype, His tag cleaved (natural protein, E. coli, UniProt P09372 1-197, looked up)
chain: B2 chain
notes: Escherichia coli GrpE, nucleotide-exchange factor of DnaK, wildtype, full length; also called full-length GrpE; wildtype GrpE; source: E. coli BL21(DE3), purified (Ni-NTA, TEV cleavage, second Ni-NTA); not shown: His tag, N-terminal, cleaved
